Laboratory results as given in US6548641 (MAX PLANCK GESELLSCHAFT ZUR FORDERUNG DER WISSENSCHAFTEN E V, dated 2003).

Biological target: T1, epidermal growth factor receptor (EGF-R) (UniProt P00533 25-1210)
T1 construct: also called EGF receptor
Test: co-immunoprecipitation with mAb 108.1 from 293 transfectants, immunoblot with anti-PTP antisera
Protocol: To standardize the experimental parameters, three chimeric RPTKs having EGF-R extracellular domains were tested (HER1-2, EK-R, EP-R) (Seedorf, K. et al., *J. Biol Chem.* 266:12424 (1991)), as was EGF-R itself (FIG. 8).
The precipitates were extensively washed, boiled in SDS sample buffer, and analyzed by 7.5% SDS-PAGE.

B1: PTP 1C protein tyrosine phosphatase (mouse) (enzyme)
chain: not shown
notes: Overexpressed transiently in human 293 cells
- binding result: no binding
